Biological target: T1, RIIα-YFP fusion protein (regulatory subunit RIIα of human protein kinase A fused to yellow-fluorescent … (human, UniProt P13861 2-404))
T1 construct: whole, on cells; Expressed inside transfected HEK293 or CD8 cells (diffuse, cytosolic); also called regulatory RIIα subunit of PKA; not shown: yellow-fluorescent protein (YFP) encoded by vector pEYFP (BD Biosciences Clontech)
Test: FRET in two co-transfected HEK293 cells, time 0 min before peptide addition
Experimental: FRET measurements were performed 24-48 hours after transfection, using an epifluorescence microscope (Axiovert 200M, Carl Zeiss, Jena, Germany). The data were stored using the Openlab 2.25 software (Improvision, Coventry GB). Fluorescence was excited at a wavelength of 425 nm for CFP and 488 nm for YFP. […] Non-specific background fluorescence was determined in a region with no cells and subtracted.
This peptide inhibits the interaction between AKAP and regulatory PKA subunits in general (Klussmann et al., J. Biol. Chem. 274, 4934-4938, 1999; see schematic diagram in FIGS. 5A and B).

T1 sequence (P13861 2-404): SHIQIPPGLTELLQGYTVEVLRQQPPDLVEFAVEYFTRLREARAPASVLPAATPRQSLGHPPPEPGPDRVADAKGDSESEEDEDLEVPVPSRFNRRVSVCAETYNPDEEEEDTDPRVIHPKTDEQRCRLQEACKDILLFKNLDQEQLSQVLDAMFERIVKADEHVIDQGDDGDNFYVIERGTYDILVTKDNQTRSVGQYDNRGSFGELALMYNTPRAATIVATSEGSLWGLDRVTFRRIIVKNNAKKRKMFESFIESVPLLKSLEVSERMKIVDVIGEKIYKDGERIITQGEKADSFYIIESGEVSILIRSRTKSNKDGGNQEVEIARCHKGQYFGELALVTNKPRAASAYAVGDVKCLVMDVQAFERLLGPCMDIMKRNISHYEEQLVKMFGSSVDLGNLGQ

- 535/480 ratio (FRET signal) prior to addition of S-Ht31: ~1.3
B1: AKAP18δ-CFP fusion protein (other)
chain: MERPAAGEIDANKCDHLSRGEEGTGDLETSPVGSLADLPFAAVDIQDDCGLPDVPQGNVPQGNPKRSKENRGDRNDHVKKRKKAKKDYQPNYFLSIPITNKKITAGIKVLQNSILRQDNRLTKAMVGDGSFHITLLVMQLLNEDEVNIGTDALLELKPFVEEILEGKHLTLPFHGIGTFQGQVGFVKLADGDHVSALLEIAETAKRTFQEKGILAGESRTFKPHLTFMKLSKAPMLWKKGVRKIEPGLYEQFIDHRFGEEILYQIDLCSMLKKKQSNGYYHCESSIVIGEKDRKEPEDAELVRLSKRLVENAVLKAVQQYLEETQNKKQPGEGNSVKAEEGDRNGDGSDNNRK
notes: Expressed inside transfected HEK293 or CD8 cells (diffuse, cytosolic); also called AKAP186; AKAP188; not shown: cyan-fluorescent protein (CFP) encoded by vector pECFP (BD Biosciences Clontech)

From patent US7863432 (FORSCHUNGSVERBUND BERLIN E V, dated 2011)
